# Test results taken from patent publication US20260049134A1 (UNIVERSITY OF FLORIDA RESEARCH FOUNDATION, published 2026).
# Changes are numbered by the printed parent chain. Names and notes keep the numbering of the source.
# T1: CADM1, endogenous in H929 multiple myeloma cells (human, UniProt Q9BY67 45-442)
# T1 construct: Native protein on H929 cells (flow cytometry, siRNA knockdown) and in H929 lysates (IP/MS); RPMI-8226 cells were used for sorting with HW-97; also called IGSF4A
# T1 sequence: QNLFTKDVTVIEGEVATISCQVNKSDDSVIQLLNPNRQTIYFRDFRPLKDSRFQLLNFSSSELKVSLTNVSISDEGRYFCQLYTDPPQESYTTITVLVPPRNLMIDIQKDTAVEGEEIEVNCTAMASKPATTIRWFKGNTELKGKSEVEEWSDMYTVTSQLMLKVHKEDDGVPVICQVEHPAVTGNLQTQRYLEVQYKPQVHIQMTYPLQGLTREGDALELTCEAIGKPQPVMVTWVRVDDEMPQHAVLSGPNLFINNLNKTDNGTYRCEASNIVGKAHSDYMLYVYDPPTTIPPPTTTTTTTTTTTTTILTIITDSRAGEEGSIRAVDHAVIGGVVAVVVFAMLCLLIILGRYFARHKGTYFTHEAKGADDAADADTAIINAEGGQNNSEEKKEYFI
# B1: HW-42 chimeric rabbit-human IgG1 LA/LA/PG (antibody, V domains shown)
# VH: QSVKESEGGLFKPADTLTLTCTVSGFSLSSNEISWVRQAPGEGLEYIGIIDTGGRAYYAVWARSRSTITRNTNLNTVTLKMTSLTAADTATYFCARGGVDTEWYAFSSWGPGTLVTVPS
# VL: SFVLTQPASVQVNLGQTVSLTCTADTLSRRYASWYQQKPGQAPVLLIFRDTSRPSGVPDRFSGSSSGDTATLTISGAQAGDEADYYCATSDGSGSNYQYVFGGGTQLTVTG
# notes: Fc-silenced (L234A/L235A/P329G) IgG1, lambda; Alexa Fluor 647-labeled in single-step flow cytometry; Cluster C-1
# B2: HW-97 chimeric rabbit-human IgG1 LA/LA/PG (antibody, V domains shown)
# VH: QKQLVESGGRLVTPGTPLTLTCTVTGIDLSSHGMSWVRQAPGKGLEWIGVIYPSGSTWYASWARGRFTISKTSTTVDLKMTSLTTEDTATHFCARGDVGGADNNIWGPGTLVTVSS
# VL: B1 VL with N13D, D25E, R30S, F48Y, D68N, N96S
# notes: Fc-silenced (L234A/L235A/P329G) IgG1, lambda; Alexa Fluor 647-labeled in single-step flow cytometry; Prototype of cluster C-97
# B3: HW-113 chimeric rabbit-human IgG1 LA/LA/PG (antibody, V domains shown)
# VH: QKQLVESGGGLVQPGGSLTLTCTVSGFSLNKYYMGWFRQAPGKGLEWIGVISRSGDTYYSSWAKGRFTISKASTTVDLRITSPTTEDTATYFCARDASSPGFHGDRLDLWGQGTLVTVSS
# VL: B1 VL with R30S, F48Y, D68N, S93I, Q98L, Y99W
# notes: Fc-silenced (L234A/L235A/P329G) IgG1, lambda; Alexa Fluor 647-labeled in single-step flow cytometry
# B4: TH9-0022 (antibody, human IgG1, kappa, L234A L235A, V domains shown)
# VH: QSLEESGGRLVTPGTPLTLTCTVSGFSLSSYAMNWVRQAPGKGLEWIGIINSYGSTYYASWAKGRFTISKTSTTVDLKITSPTTEDTATYFCARVTYDSYGYGYAPYGMDLWGPGTLVTVSS
# VL: LVMTQTPSSTSNAVGGTVTIKCQASQSIGNVLAWYQQKPGQPPKLLIYAASTLASGVPSRVGGSRSGTEYTLTISGVQREDAATYYCLGSDSDSDIAFGGGTELEILR
# notes: also called TH9-022; negative control IgG1
# Assays:
# [1] = molecular target: T2, PTPRG, endogenous in H929 multiple myeloma cells (human, UniProt P23470 20-1445); experiment: flow cytometry, H929 + CDH18 siRNA; None 443
# T2 construct: Native protein on H929 cells (flow cytometry, siRNA knockdown) and in H929 lysates (IP/MS); also called phosphatase receptor type γ
# T2 sequence (P23470 20-1445 limits assumed): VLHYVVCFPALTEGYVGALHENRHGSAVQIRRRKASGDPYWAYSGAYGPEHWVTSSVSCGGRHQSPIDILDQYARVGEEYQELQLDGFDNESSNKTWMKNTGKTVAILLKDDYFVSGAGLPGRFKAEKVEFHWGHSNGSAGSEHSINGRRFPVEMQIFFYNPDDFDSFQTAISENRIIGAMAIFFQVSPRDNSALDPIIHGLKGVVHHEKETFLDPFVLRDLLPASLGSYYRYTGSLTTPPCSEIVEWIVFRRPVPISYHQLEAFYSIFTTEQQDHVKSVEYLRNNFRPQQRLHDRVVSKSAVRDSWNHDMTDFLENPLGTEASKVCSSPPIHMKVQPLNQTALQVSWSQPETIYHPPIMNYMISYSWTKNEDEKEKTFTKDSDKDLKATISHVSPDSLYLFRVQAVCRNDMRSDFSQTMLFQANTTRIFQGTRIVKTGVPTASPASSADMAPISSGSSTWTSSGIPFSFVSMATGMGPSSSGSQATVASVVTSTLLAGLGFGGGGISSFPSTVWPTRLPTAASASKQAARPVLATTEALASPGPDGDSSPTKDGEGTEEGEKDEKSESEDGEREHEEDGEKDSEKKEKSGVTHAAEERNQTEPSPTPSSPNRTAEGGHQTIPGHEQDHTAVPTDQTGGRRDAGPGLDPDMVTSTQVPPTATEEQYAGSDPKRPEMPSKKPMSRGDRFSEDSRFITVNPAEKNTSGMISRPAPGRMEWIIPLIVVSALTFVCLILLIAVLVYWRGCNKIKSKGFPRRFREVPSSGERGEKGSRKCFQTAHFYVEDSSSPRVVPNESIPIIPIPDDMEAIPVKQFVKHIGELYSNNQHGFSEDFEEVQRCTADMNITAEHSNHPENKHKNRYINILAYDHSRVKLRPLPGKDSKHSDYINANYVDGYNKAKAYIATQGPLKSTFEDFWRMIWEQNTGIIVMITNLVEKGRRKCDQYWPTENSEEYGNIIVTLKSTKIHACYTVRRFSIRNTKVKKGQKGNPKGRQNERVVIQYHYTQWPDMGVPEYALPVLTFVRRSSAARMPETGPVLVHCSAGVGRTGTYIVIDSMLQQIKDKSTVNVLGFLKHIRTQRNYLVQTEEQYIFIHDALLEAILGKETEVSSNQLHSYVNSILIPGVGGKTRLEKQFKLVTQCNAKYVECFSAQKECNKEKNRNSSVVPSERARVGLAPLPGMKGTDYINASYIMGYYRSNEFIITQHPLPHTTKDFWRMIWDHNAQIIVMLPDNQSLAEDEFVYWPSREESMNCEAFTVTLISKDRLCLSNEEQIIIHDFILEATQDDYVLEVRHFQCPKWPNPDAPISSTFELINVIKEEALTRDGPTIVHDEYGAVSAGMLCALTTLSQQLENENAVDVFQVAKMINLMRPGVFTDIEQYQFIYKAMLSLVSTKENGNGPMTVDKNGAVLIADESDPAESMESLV
# [2] = molecular target: T2, PTPRG, endogenous in H929 multiple …; experiment: flow cytometry, H929 + GARS siRNA; None 452
# [3] = molecular target: T2, PTPRG, endogenous in H929 multiple …; experiment: flow cytometry, H929 + GARS siRNA; None 0.2
# [4] = molecular target: T1, CADM1, endogenous in H929 multiple …; experiment: flow cytometry, H929 + CDH18 siRNA; None 443
# [5] = molecular target: T1, CADM1, endogenous in H929 multiple …; experiment: flow cytometry, H929 + GARS siRNA; None 452
# [6] = molecular target: T1, CADM1, endogenous in H929 multiple …; experiment: flow cytometry, H929 + GARS siRNA; None 0.2
# [7] = molecular target: T3, ICAM1, endogenous in H929 multiple myeloma cells (human, UniProt P05362 28-532); experiment: flow cytometry, H929 + CDH18 siRNA; None 443
# T3 construct: Native protein on H929 cells (flow cytometry, siRNA knockdown) and in H929 lysates (IP/MS); also called CD54
# T3 sequence (P05362 28-532 limits assumed): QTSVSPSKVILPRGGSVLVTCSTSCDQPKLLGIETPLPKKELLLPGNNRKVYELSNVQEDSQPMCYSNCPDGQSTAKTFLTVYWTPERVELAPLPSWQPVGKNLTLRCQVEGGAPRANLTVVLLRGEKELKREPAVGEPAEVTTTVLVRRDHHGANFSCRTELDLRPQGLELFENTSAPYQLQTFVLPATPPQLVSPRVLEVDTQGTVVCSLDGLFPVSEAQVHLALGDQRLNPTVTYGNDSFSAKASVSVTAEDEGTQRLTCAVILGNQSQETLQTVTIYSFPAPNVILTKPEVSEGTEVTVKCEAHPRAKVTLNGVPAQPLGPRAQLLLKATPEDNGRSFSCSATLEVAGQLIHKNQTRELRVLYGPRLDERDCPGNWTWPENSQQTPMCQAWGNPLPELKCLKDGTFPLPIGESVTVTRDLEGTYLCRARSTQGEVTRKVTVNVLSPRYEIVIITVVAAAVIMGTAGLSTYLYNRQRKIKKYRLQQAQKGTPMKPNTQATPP
# [8] = molecular target: T3, ICAM1, endogenous in H929 multiple …; experiment: flow cytometry, H929 + GARS siRNA; None 452
# [9] = molecular target: T3, ICAM1, endogenous in H929 multiple …; experiment: flow cytometry, H929 + PTPRG siRNA; None 2.13
# [10] = molecular target: T3, ICAM1, endogenous in H929 multiple …; experiment: flow cytometry, H929 + GARS siRNA; None 0.2
# [11] = molecular target: T4, PTPRG on U266 cells (human, UniProt P23470); experiment: flow cytometry, IgG1 on cell lines, heatmap of % positive cells
# T4 construct: endogenous on U266 multiple myeloma cells; also called HW-1 target on U266
# T4 sequence (P23470 20-1445 limits assumed): as the sequence (P23470 20-1445 limits assumed) above
binder,measurement,setting,value
B1,mAb binding (MFI),[1],9870
same,mAb binding (MFI),[2],9850
same,Cells stained (%),[3],98.8%
B2,mAb binding (MFI),[4],17900
same,mAb binding (MFI),[5],22100
same,Cells stained (%),[6],99.9%
B3,mAb binding (MFI),[7],18200
same,mAb binding (MFI),[8],43200
same,Cells stained (%),[9],98.2%
same,Cells stained (%),[10],99.8%
B4,binding result,[11],no binding
